Experimental findings from patent publication US20230075753A1 (UCB, published 2023) are described below.

Test [1] has as its target T1, Active human KLK5 (human, UniProt Q9Y337 67-293). The test can be described thus: cell-based or functional assay.
Test [2] concerns the target T2, Active cyno KLK5 (cynomolgus monkey, UniProt Q9Y337 67-293 (human entry)).
T2 chain: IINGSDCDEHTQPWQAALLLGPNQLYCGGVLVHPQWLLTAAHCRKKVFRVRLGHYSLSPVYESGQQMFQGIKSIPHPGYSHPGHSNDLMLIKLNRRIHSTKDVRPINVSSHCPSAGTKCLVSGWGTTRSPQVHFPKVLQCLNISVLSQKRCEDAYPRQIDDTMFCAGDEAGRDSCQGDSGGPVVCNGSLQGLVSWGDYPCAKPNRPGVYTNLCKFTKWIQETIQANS
The test can be described thus: cell-based or functional assay.

Test [3] concerns the target T1, Active human KLK5. The test can be described thus: SPR; repeats Table 3 (footnote: as described in example 4 and Table 3).
In test [4] the target is T1, Active human KLK5. The test can be described thus: SPR, Biacore T200, 25 C; mIgG captured on anti-mouse Fc, human KLK5 as analyte (20-0.25 nM), 1:1 model. The protocol: The kinetics of murine IgG molecules binding to human KLK5 were assessed by surface plasmon resonance (Biacore T200, (GE Life Sciences™) at 25° C.
Kinetic parameters were determined using a 1:1 binding model using Biacore T200 Evaluation software.
On the technique in general: In SPR one partner is held on a chip, and binding of the other changes the refractive index at the surface.

For test [5], the target named is T1, Active human KLK5. Description: SPR, Biacore T200, 25 C; reference 10236gL6gH12. The protocol: (§1) A goat anti-human IgG Fc specific antibody (Jackson ImmunoResearch) was immobilized on a CM5 Sensor Chip via amine coupling chemistry to a level of approximately 6000RU. Each analysis cycle consisted of capture of the anti-KLK5 IgG molecules to the anti Fc surface, injection of KLK5 analyte (prepared in house) for 300 s at 30 μl/min followed by 600 s dissociation. At the end of each cycle the surface was regenerated at a flowrate of 10 μL/min using a 60 s injection of 50 mM HCl followed by a 30 s injection of 5 mM NaOH and a final 60 s injection of 50 mM HCl. Human KLK5 was titrated from 20 nM to 0.03 nM (6×3-fold serial dilutions) in HBS-EP+ running buffer (GE Healthcare) supplemented to a final concentration of 300 mM NaCl. Buffer blank injections were included to subtract instrument noise and drift. Kinetic parameters were determined using a 1:1 binding model using Biacore T200 Evaluation software (version 3.0).

Test [6] addresses T1, Active human KLK5. Description: SPR, Biacore T200, 25 C; IgG captured on anti-human Fc, human KLK5 as analyte (20-0.03 nM), 1:1 model. The protocol: The kinetics of binding of both antibodies 10236gL6gH12 and 10236gL6-N94DgH12 to human KLK5 were assessed by surface plasmon resonance (Biacore T200, GE Life Sciences™) at 25° C. to assess the impact of 100% deamidation.
as §1

Test [7] has as its target T1, Active human KLK5. The test can be described thus: SPR; average of the 2 runs of Table 15.
The target in test [8] is T2, Active cyno KLK5. Description: cell-based or functional assay.
Test [9] addresses T1, Active human KLK5. Description: SPR, Biacore T200, 25 C; IgG from supernatant captured on anti-human Fc, human KLK5 as analyte (20-0.08 nM), 1:1 model. Here is the method: A goat anti-human IgG Fc specific antibody (Jackson ImmunoResearch) was immobilized on a CM5 Sensor Chip via amine coupling chemistry to a level of approximately 6000RU. Each analysis cycle consisted of capture of the anti-KLK5 IgG from supernatants to the anti Fc surface, injection of KLK5 analyte (prepared in house) for 180 s at 30 μl/min followed by 600 s dissociation. At the end of each cycle the surface was regenerated at a flowrate of 10 μL/min using a 60 s injection of 50 mM HCl followed by a 30 s injection of 5 mM NaOH and a final 60 s injection of 50 mM HCl. Human KLK5 was titrated from 20 nM to 0.08 nM (5×3-fold serial dilutions) for the supernatant in HBS-EP+ running buffer (GE Healthcare®) supplemented to a final concentration of 300 mM NaCl. Buffer blank injections were included to subtract instrument noise and drift. Kinetic parameters were determined using a 1:1 binding model using Biacore T200 Evaluation software (version 3.0). Experiments were carried out at 25° C.

The target of test [10] is T1, Active human KLK5. Description: SPR, Biacore T200; LEKTI D5 Fab fusion immobilised on CM5 chip, human KLK5 injected 0.32-32 nM, single cycle kinetics, 1:1 model. The protocol: (§2) Kinetic measurements for the binding of LEKTI D5 Fab fusion protein to human KLK5 were obtained using a Biacore T200 (GE Life Sciences™). To prepare the surface, CM5 chips (GE Life Sciences™) were first activated with a 5-minute injection (30 μL min⁻¹) of a mixture of EDC/NHS (GE Life Sciences™) followed by injection of 100 μg mL⁻¹ LEKTI D5 Fab fusion (UCB) in acetate buffer, pH 5.0 (GE Life Sciences™) to achieve 80 RU immobilised LEKTI D5 Fab fusion on the chip surface. Finally, an injection of 1 M Ethanolamine hydrochloride-NaOH pH 8.5 was utilised to deactivate the surface. Increasing concentrations of human KLK5 from 0.32 to 32 nM in HBS-EP buffer (GE Life Sciences™) were then injected in the single cycle kinetics mode. Values resulting from buffer only injections were subtracted from those obtained for the KLK5 injections and kinetics determined by fitting to a 1:1 binding model in BIAcore evaluation software (GE Life Sciences™)
(§3) As reference, LEKTI D5 Fab fusion protein was immobilised to the chip surface prior to monitoring the interaction with human KLK5.

In test [11] the target is T1, Active human KLK5. Description: SPR, Biacore T200; LEKTI D5 Fab fusion immobilised on CM5 chip, human KLK5 injected 0.32-32 nM, single cycle kinetics, 1:1 model; human KLK5 alone, no antibody 10236; LEKTI D5 Fab fusion immobilised on the chip. Here is the method:
as §2, §3

For test [12], the target named is T1, Active human KLK5. The test can be described thus: SPR; antibody 10236 gL6gH12 captured on anti-human Fc and loaded with human KLK5, LEKTI D5 Fab fusion injected, 1:1 model; KLK5 in complex with 10236 gL6gH12. The protocol: (§4) The experimental conditions described in example 5 were used with the exception that an anti-human Fc chip surface was prepared, and the results are reported in Table 6.

The target of test [13] is T1, Active human KLK5. The test can be described thus: SPR; LEKTI D5 Fab fusion immobilised, human KLK5 injected; reference row, same values as Table 4A. The protocol:
as §2, §3

Test [14] addresses T1, Active human KLK5. The test can be described thus: SPR; antibody 10236 gL6gH12 captured on anti-human Fc and loaded with human KLK5, LEKTI D5 Fab fusion injected, 1:1 model; KLK5 in complex with 10236 gL6gH12; KLK5 already in complex with antibody 10236 gL6gH12. Here is the method: as §4
Test [15] deals with T1, Active human KLK5. The test can be described thus: SPR, Biacore; rabbit antibody 10236 captured on anti-rabbit Fc and saturated with 20 nM human KLK5, LEKTI D5 Fab fusion injected 30 pM-100 nM, 1:1 model; KLK5 in complex with 10236. The protocol:
20 nM of human KLK5 was then injected until the surface reached saturation. LEKTI D5 Fab fusion protein (generated as described in example 1) was then injected at concentrations between 30 pM and 100 nM. Values from buffer only injections were first subtracted from those obtained with the analytes before fitting to a 1:1 binding kinetic model in Biacore™ evaluation software (GE Life Sciences™)

Where a chain is given by its changes, count along the chain named. “And” between values parts separate entries of the source, which are not always exact repeats. Equal values may be shown once.

B1: Rabbit antibody 10236 mIgG (rabbit variable regions on mouse constant regions) (antibody)
light: AYDMTQTPASVEVAVGGTVTIKCQASQSISSWLAWYQQKPGQPPKLLIYLASTLASGVSSRFKGSGSGTQFTLTISGVECADAATYYCQQGYTNSNIINTFGGGTEVVVKRTDAAPTVSIFPPSSEQLTSGGASVVCFLNNFYPKDINVKWKIDGSERQNGVLNSWTDQDSKDCTYSMSSTLTLTKDEYERHNSYTCEATHKTSTSPIVKSFNRNEC
heavy: QSVEESGGRLVTPGTPLTLTCTVSGFPLSNYAMSWVRQAPGKGLEWIGDIYPSDIIDYASWAKGRFTISQTSTTVELKITGPTTEDTATYFCARDNNDYGLDIWGPGTLVTVSSAKTTPPSVYPLAPGSAAQTNSMVTLGCLVKGYFPEPVTVTWNSGSLSSGVHTFPAVLQSDLYTLSSSVTVPSSTWPSETVTCNVAHPASSTKVDKKIVPRDCGCKPCICTVPEVSSVFIFPPKPKDVLTITLTPKVTCVVVDISKDDPEVQFSWFVDDVEVHTAQTQPREEQFNSTFRSVSELPIMHQDWLNGKEFKCRVNSAAFPAPIEKTISKTKGRPKAPQVYTIPPPKEQMAKDKVSLTCMITDFFPEDITVEWQWNGQPAENYKNTQPIMDTDGSYFVYSKLNVQKSNWEAGNTFTCSVLHEGLHNHHTEKSLSHSPGK
By Kd is commonly meant the concentration at which binding is half-saturated. What is called koff is the rate constant with which the complex falls apart. A higher koff goes with a short-lived complex. As usually defined, the kon is the second-order rate constant of association. The low end stands for slower complex formation, the high end for faster complex formation. As to B1, the “IC50 (M), inhibition of kallikrein protease activity (fluorogenic peptide substrate)” value in the test with Active human KLK5 [1] is 2.4e-10 M. Further, the “IC50 (M), inhibition of kallikrein protease activity (fluorogenic peptide substrate)” value with Active cyno KLK5 [2] turned out to be 3.3e-11 M. In the test with Active human KLK5 [3], this molecule returned a Kd of 0.172 nM, a koff of 0.000517 s⁻¹ and a kon of 3e+06 M⁻¹ s⁻¹. In the test with Active human KLK5 [4], this molecule returned a Kd of 0.172 nM, an off-rate (koff) of 0.000517 s⁻¹ and a kon of 3e+06 M⁻¹ s⁻¹.

B2: Antibody 10236 gL6-N94DgH12 (IgG4P) (antibody, V domains shown)
VH: EVQLQESGPGLVKPSGTLSLTCAVSGFPLSNYAMSWVRQPPGKGLEWIGDIYPSDIIDYASWAKGRVTISQDSSKNQVSLKLSSVTAADTAVYYCARDNNDYGLDIWGQGTLVTVSS
VL: AYDMTQSPSSLSASVGDRVTITCQASQSISSWLAWYQQKPGKAPKLLIYLASTLASGVPSRFSGSGSGTDFTLTISSLQPEDFATYYCQQGYTDSNIINTFGGGTKVEIKR
notes: surrogate for the fully deamidated product of 10236gL6gH12
In the case of B2, the “fold decrease of affinity against 10236gL6gH12” value with Active human KLK5 [5] amounted to 4.5 fold. Besides, in the test with Active human KLK5 [6], the affinity, expressed as Kd, was 1.25 nM; the koff came out at 0.00486 s⁻¹; the on-rate (kon) is 3.89e+06 M⁻¹ s⁻¹.

B3: Humanized antibody 10236 gL6gH12 (antibody, V domains shown)
VH: B2 VH
VL: B2 VL with D94N
notes: also called Ab10236gL6gH12
Regarding B3, the Kd in the test with Active human KLK5 [7] is 0.299 nM; in the test with Active human KLK5 [9], 0.324 nM; with Active human KLK5 [6], 0.314 nM and 0.283 nM. In addition, in the test with Active cyno KLK5 [8], the “IC50 (read off the curve)” value is roughly 0.1 nM. For the same molecule, the koff in the test with Active human KLK5 [9] is 0.00066 s⁻¹; with Active human KLK5 [6], 0.000711 s⁻¹ and 0.000658 s⁻¹. Further, the kon is 2.04e+06 M⁻¹ s⁻¹ in the test with Active human KLK5 [9]; 2.26e+06 M⁻¹ s⁻¹ and 2.33e+06 M⁻¹ s⁻¹ in the test with Active human KLK5 [6].

B4: LEKTI D5 Fab fusion protein (other)
heavy: EVQLLESGGGLVQPGGSLRLSCAVSGIDLSNYAINWVRQAPGKGLEWIGIIWASGTTFYATWAKGRFTISRDNSGGGGSGGGGSREIVKLCSQYQNQAKNGILFCTRENDPIRGPDGKMHGNLCSMCQAYFQAENEEKKKAEARARSGGGGGGGGSKNTVYLQMNSLRAEDTAVYYCARTVPGYSTAPYFDLWGQGTLVTVSSASTKGPSVFPLAPSSKSTSGGTAALGCLVKDYFPEPVTVSWNSGALTSGVHTFPAVLQSSGLYSLSSVVTVPSSSLGTQTYICNVNHKPSNTKVDKKVEPKSCHHHHHHHHHH
light: DIQMTQSPSSVSASVGDRVTITCQSSPSVWSNFLSWYQQKPGKAPKLLIYEASKLTSGVPSRFSGSGSGTDFTLTISSLQPEDFATYYCGGGYSSISDTTFGGGTKVEIKRTVAAPSVFIFPPSDEQLKSGTASVVCLLNNFYPREAKVQWKVDNALQSGNSQESVTEQDSKDSTYSLSSTLTLSKADYEKHKVYACEVTHQGLSSPVTKSFNRGEC
notes: the Fab itself is specific for albumin; also called Human LEKTI D5 Fab fusion protein
For B4, the koff with Active human KLK5 [10] came out at 2.3e-05 s⁻¹; in the test with Active human KLK5 [12] it was 0.0016 s⁻¹; with Active human KLK5 [13] it was 2.3e-05 s⁻¹; in the test with Active human KLK5 [15], 0.0073 s⁻¹. For the same molecule, the kon in the test with Active human KLK5 [10] came to 570000 M⁻¹ s⁻¹; in the test with Active human KLK5 [13] it was 570000 M⁻¹ s⁻¹; with Active human KLK5 [15] it was 59000 M⁻¹ s⁻¹. Further, the results for the dissociation constant Kd in the test with Active human KLK5 [11], with Active human KLK5 [14] and with Active human KLK5 [15] were 0.04 nM, 540 nM and 120 nM, respectively.
